Measured values reported in article PMC8336959 (Science Advances, 2021).
Square brackets hold non-standard residues; d marks the D form. Ends that are not written are not given here. pY = N[C@@H](Cc1ccc(OP(=O)(O)O)cc1)C(=O)O; pS = N[C@@H](COP(=O)(O)O)C(=O)O

B1: RPA70 N-terminal OB1 domain (RPA70N, residues 1 to 120), Atto488-labeled (domain or fragment)
chain: MVGQLSEGAIAAIMQKGDTNIKPILQVINIRPITTGNSPPRYRLLMSDGLNTLSSFMLATQLNPLVEEEQLSSNCVCQIHRFIVNTLKDGRRVVILMELEVLKSAEAVGVKIGNPVPYNE
modifications: Atto488 label

Legend:
Assay in all cases: MST
[1] = biological target: Atto488-labeled GRB2-SH2 domain (UniProt P62993 60-152, Atto488 label)
Sequence of Atto488-labeled GRB2-SH2 domain (P62993 60-152): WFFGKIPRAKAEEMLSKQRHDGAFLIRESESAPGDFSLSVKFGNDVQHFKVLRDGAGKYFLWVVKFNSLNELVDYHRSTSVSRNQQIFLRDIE

[2] = biological target: B1
[3] = biological target: GRB2, wild type, bacterially expressed and purified (UniProt P62993 1-217)
Sequence of GRB2, wild type, bacterially expressed and purified (P62993 whole entry): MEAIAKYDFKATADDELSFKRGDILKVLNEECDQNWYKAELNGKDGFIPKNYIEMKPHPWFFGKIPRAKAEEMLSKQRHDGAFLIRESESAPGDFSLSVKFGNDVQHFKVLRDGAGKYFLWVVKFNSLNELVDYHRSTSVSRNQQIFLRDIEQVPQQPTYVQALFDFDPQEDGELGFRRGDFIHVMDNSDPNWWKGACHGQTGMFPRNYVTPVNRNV

Binder | Kd [1] | binding result [3] | also measured
PWVNYQDGNLN [MRE11 peptide] | 33 ± 15 µM | – | –
KYDFKATADDELSFKRG [GRB2 OB1 peptide] | – | – | binding result [2]: binds
PWVN[pY]QDGNLN [Tyrosine-phosphorylated MRE11 peptide] | – | binds | –
FLPVPE[pY]INQSVPKR [Phosphorylated EGFR synthetic peptide] | 7.2 ± 2 µM | – | –
PSGGKKATQA[pS]QE[pY] [Dual-phosphorylated H2AX (pH2AX) peptide] | – | binds | –
B1 | – | binds | –
